Like-named read-outs stand apart in the source and are kept apart here.
What was measured:
[1] = target: T1, Brf1 (TFIIB-related factor, subunit of TFIIIB) (S. cerevisiae, UniProt P29056 1-596); assay: native gel or EMSA
T1 sequence (looked up): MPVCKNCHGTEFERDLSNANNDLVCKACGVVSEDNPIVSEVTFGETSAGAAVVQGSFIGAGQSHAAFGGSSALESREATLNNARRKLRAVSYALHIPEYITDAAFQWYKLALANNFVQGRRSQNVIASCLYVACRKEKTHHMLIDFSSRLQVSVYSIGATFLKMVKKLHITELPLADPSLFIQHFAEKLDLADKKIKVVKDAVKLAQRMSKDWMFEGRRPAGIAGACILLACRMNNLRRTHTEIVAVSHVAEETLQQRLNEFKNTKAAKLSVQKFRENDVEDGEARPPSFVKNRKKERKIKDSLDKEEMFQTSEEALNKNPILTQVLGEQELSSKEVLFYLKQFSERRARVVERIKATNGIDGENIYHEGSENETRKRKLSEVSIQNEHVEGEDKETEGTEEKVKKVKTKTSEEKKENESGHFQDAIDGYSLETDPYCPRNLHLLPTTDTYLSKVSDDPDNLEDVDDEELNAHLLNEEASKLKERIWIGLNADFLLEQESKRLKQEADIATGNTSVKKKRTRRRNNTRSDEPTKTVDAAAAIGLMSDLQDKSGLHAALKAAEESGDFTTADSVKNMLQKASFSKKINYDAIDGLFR

[2] = target: T2, TBPm3 (altered specificity TATA-binding protein mutant) (UniProt P13393 1-240, I194F;V203T;L205V); assay: EMSA kinetics
T2 sequence: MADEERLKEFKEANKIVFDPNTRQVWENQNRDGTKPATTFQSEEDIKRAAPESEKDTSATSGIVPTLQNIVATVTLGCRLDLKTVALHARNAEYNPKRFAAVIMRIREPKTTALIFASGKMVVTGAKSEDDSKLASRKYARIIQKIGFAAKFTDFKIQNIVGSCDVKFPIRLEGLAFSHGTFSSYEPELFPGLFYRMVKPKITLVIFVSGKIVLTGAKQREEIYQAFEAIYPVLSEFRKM

[3] = target: T2, TBPm3 (altered specificity TATA-binding …); assay: EMSA kinetics; remark: listed apart in the source
[4] = target: T2, TBPm3 (altered specificity TATA-binding …); assay: MPE-Fe

B1: TBPm3 (altered specificity TATA-binding protein mutant) (natural protein, S. cerevisiae, UniProt P13393 1-240, looked up)
chain: MADEERLKEFKEANKIVFDPNTRQVWENQNRDGTKPATTFQSEEDIKRAAPESEKDTSATSGIVPTLQNIVATVTLGCRLDLKTVALHARNAEYNPKRFAAVIMRIREPKTTALIFASGKMVVTGAKSEDDSKLASRKYARIIQKIGFAAKFTDFKIQNIVGSCDVKFPIRLEGLAFSHGTFSSYEPELFPGLFYRMVKPKITLVIFVSGKIVLTGAKQREEIYQAFEAIYPVLSEFRKM
[1]
  binding result: binds

B2: TATA probe (U6 TATA box), 26 bp (dsDNA)
DNA 1: CGTGACTACTATAAATAGATGATCCG
DNA 2: CGGATCATCTATTTATAGTAGTCACG
[2]
  Kd: 300 pM

B3: TGTA probe, 26 bp (dsDNA)
DNA 1: CGTGACTACTGTAAATAGATGATCCG
DNA 2: CGGATCATCTATTTACAGTAGTCACG
[3]
  Kd: 600 pM

B4: 76 bp DNA with favored sequence TGTAAATTG (dsDNA)
DNA 1: CGCTGCAATCTCTTTTTCAATTGCTCCGGACTGTAAATTGGCGGTCCCTTACTCTTTCCTCAACAATTAACGGCCC
DNA 2: GGGCCGTTAATTGTTGAGGAAAGAGTAAGGGACCGCCAATTTACAGTCCGGAGCAATTGAAAAAGAGATTGCAGCG
[4]
  binding result: binds
